Measurements from PMC9450138 (Redox Biology, 2022).

Biological target: T1, Alexa Fluor 546 labelled PRDX1 (UniProt Q06830 1-199, Alexa Fluor 546 label (site not stated))
T1 sequence (looked up): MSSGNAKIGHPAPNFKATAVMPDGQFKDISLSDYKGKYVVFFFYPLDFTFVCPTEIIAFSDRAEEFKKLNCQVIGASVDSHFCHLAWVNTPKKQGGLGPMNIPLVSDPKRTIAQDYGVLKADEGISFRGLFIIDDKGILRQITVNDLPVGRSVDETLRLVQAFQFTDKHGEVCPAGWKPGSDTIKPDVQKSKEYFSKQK
Assay: other fluorescence titration

B1: RAD51 labelled with the QSY 35 quencher (natural protein, UniProt Q06609 1-339, looked up)
chain: MAMQMQLEANADTSVEEESFGPQPISRLEQCGINANDVKKLEEAGFHTVEAVAYAPKKELINIKGISEAKADKILAEAAKLVPMGFTTATEFHQRRSEIIQITTGSKELDKLLQGGIETGSITEMFGEFRTGKTQICHTLAVTCQLPIDRGGGEGKAMYIDTEGTFRPERLLAVAERYGLSGSDVLDNVAYARAFNTDHQTQLLYQASAMMVESRYALLIVDSATALYRTDYSGRGELSARQMHLARFLRMLLRLADEFGVAVVITNQVVAQVDGAAMFAADPKKPIGGNIIAHASTTRLYLRKGRGETRICKIYDSPCLPEAEAMFAINADGVGDAKD
modifications: QSY 35 quencher label (site not stated)
  apparent KD (first of two): 140 nM
  apparent KD (second of two): 610 nM
